The supplement of paper PMC11908140

B1: library; numbered along this chain (parent)
chain: MRKPRAAVGSGHRKQAASQEGRQKHAKNNSQAKPSACDGLARQPEEVVLQASVSSYHLFRDVAEVTAFRGSLLSWYDQEKRDLPWRRRAEDEMDLDRRAYAVWVSEVMLQQTQVATVINYYTGWMQKWPTLQDLASASLEEVNQLWAGLGYYSRGRRLQEGARKVVEELGGHMPRTAETLQQLLPGVGRYTAGAIASIAFGQATGVVDGNVARVLCRVRAIGADPSSTLVSQQLWGLAQQLVDPARPGDFNQAAMELGATVCTPQRPLCSQCPVESLCRARQRVEQEQLLASGSLSGSPDVEECAPNTGQCHLCLPPSEPWDQTLGVVNFPRKASRKPPREESSATCVLEQPGALGAQILLVQRPNSGLLAGLWEFPSVTWEPSEQLQRKALLQELQRWAGPLPATHLRHLGEVVHTFSHIKLTYQVYGLALEGQTPVTTVPPGARWLTQEEFHTAAVSTAMKKVFRVYQGQQPGTCMGSKRSQVSSPCSRKKPRMGQQVLDNFFRSHISTDAHSLNSAAQ

Variants of: B1
Assay: 8OG:A repair function score (normalized; synonymous = 0, nonsense = -1) (normalized log-likelihood score); higher = more repair activity (WT-like)
Details: with 8OG:A DNA repair reporter (GFP) in HEK-293 MUTYH KO cells
Summary of the method: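 After 72 h, viable mCherry+ cells were split into GFP+ (repair) and GFP− bins in three replicates per tile. These cells were MUTYH knockout HEK-293 cells holding lentiviral MUTYH cDNA NNN codon-scan libraries, kept in 10 pg/ml doxycycline and co-transfected with mCherry plus an 8OG:A GFP repair reporter. Sequencing of tile amplicons gave per-tile Rosace fitness scores, normalized into a repair function score anchored on synonymous and nonsense distributions. Synonymous medians were fixed at 0, nonsense at -1, and variants under 300 counts per million at the start were removed.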
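Note: cells sorted at 72 h after reporter transfection.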

| Variant | 8OG:A repair function score |
| --- | --- |
| P225Q | -0.132 |
| P225H | -0.374 |
| M108K | -1.01 |
| S343F | -0.0296 |
| S343G | -0.00518 |
| L432K | -0.608 |
| P244D | -0.291 |
| H172A | -0.0729 |
| L408G | -0.81 |
| Y428A | -1.05 |
| R364H | -0.405 |
| R364Y | -0.593 |
| R213A | -1.02 |
| P402K | -0.00401 |
| V117H | -1.24 |
| R398K | -0.0169 |
| R2S | 0.049 |
| L184K | -0.925 |
| H312C | -0.0404 |
| H312V | 0.078 |
| Q78H | -0.0658 |

| Variant | 8OG:A repair function score |
| --- | --- |
| Q78C | -0.996 |
| T406H | 0.516 |
| T406A | 0.32 |
| R506S | 0.00235 |
| A67H | -0.0348 |
| A147S | 0.0618 |
| A147R | -0.11 |
| T346I | 0.0144 |
| R281L | -0.166 |
| D300T | -0.109 |
| D96W | -0.378 |
| D96L | -0.43 |
| R266W | -0.135 |
| D208A | -1.04 |
| D208I | -1.02 |
| Q499D | -0.0217 |
| V274W | -0.16 |
| G353L | -0.135 |
| L180S | -0.679 |
| E451S | -0.131 |
| P84F | -0.723 |

| Variant | 8OG:A repair function score |
| --- | --- |
| T449P | -0.0904 |
| N210R | -1.03 |
| Q182S | 0.0262 |
| Q182E | -0.0278 |
| D243N | -0.739 |
| W146I | -0.138 |
| I509A | 0.0157 |
| C347A | -0.0315 |
| C347H | -1.55 |
| P474V | 0.00398 |
| P474T | 0.0285 |
| P474R | 0.00458 |
| P34I | -0.0342 |
| S54N | -0.00348 |
| C216Y | -0.886 |
| Q113R | 0.032 |
| R279Y | -0.151 |
| R279N | -0.123 |
| R279W | -0.139 |
| S318Y | -0.0582 |
| S318N | -0.0704 |

| Variant | 8OG:A repair function score |
| --- | --- |
| S344P | -0.301 |
| S344Y | 0.0271 |
| K80R | -0.0152 |
| S486R | -0.0146 |
| N329T | -0.361 |
| N329V | -0.246 |
| M93Y | -0.0084 |
| M125E | -0.577 |
| M125A | -0.557 |
| C477G | -0.00235 |
| C477D | 0.016 |
| C477E | -0.0756 |
| Q521A | 0.0136 |
| Q521K | -0.0417 |
| E79G | -0.00351 |
| S55I | -0.0166 |
| S55Y | 0.000496 |
| V284Q | -0.0561 |
| Q386H | 0.241 |
| E385N | -0.0672 |
